Where “and” joins values, the source holds several entries; their conditions need not be identical. Equal entries are not always repeated.
B1: MC-HSP90 (N-terminal truncated human HSP90α, middle segment and carboxy-terminal domain, residues 293–732) (domain or fragment)
chain: not shown
notes: two extra Ala residues encoded after the Factor Xa cleavage site; found at the N-terminus by MALDI-MS of the dissolved crystal; human heat shock protein 90α, residues 293-732 (M and C domains), from a full length cDNA (NM_005348.2; 732 residues); In solution a mixture of dimer, tetramer and hexamer; The reverse primer encodes six His after the last residue; also called truncated HSP90; wild-type …
B2: MC-HSP90 W320A (domain or fragment)
chain: not shown
notes: two extra Ala residues encoded after the Factor Xa cleavage site (made on the plasmid pGEX-6p-1-MC-HSP90); human heat shock protein 90α, residues 293-732, with W320A; also called mutant W320A; mutant protein W320A of MC-HSP90; source: E. coli BL21 (DE3), expressed and purified as the wild-type MC-HSP90; not shown: GST, N-terminal, cleaved
B3: MC-HSP90-Ct (human HSP90α residues 293–697, C-terminal 35 residues also truncated) (domain or fragment)
chain: not shown
notes: two extra Ala residues encoded after the Factor Xa cleavage site (same forward primer as MC-HSP90); human heat shock protein 90α, residues 293-697; Purified by a protocol similar to that of MC-HSP90; The reverse primer printed for this construct appears to encode eight His; also called C-terminal tail truncated MC-HSP90-Ct; source: E. coli BL21 (DE3), purified (Ni-NTA, Factor Xa cleavage, second …)

Columns and labels:
[1] = target: the molecule itself; test: crystal structure; MC-HSP90 in three crystal forms (C222_1 with cis-DEP, P2_1 with cisplatin, R32 with Silver Bullets No. 18); 2.5 M ammonium sulfate, 0.1 M tri-sodium citrate pH 5.4-5.8; molecular replacement
[2] = target: the molecule itself; test: AUC; sedimentation velocity of fractions from the S-300 column, 0.3 mg/ml in 100 mM Tris-HCl, 45,000 rpm, 20°C, c(s) distribution (SEDFIT)
[3] = target: the molecule itself; test: crystal structure; MC-HSP90-Ct, P6_322 crystal; 2.6 M ammonium sulfate, 0.1 M tri-sodium citrate pH 5.0, Silver Bullets No. 70; molecular replacement

Protein | stoichiometry N [1] | stoichiometry N [2] | stoichiometry N [3]
B1 | 6 | 2 and 4 | 
B2 |  | 6 and 2 and 4 | 
B3 |  |  | 6

Source: article PMC3102065, “The Hexameric Structures of Human Heat Shock Protein 90” (PLoS ONE, 2011)
